From patent US11278600B2, “Human alpha-galactosidase variants” (Codexis, Inc., priority 2014, dated 2022)
Positions count from the first letter of the chain named. Names and notes keep the numbering of the source.

What was measured:
Assay type in all cases: biochemical
[1] = target: T1, GLA (Homo sapiens, UniProt P06280); experiment: Effect of Migalastat on thermostability and activity of GLA (HEK293T supernatants)
T1 construct: made in house; host or cells: HEK293 / HEK293T cells, transient transfection; unpurified culture supernatant used
T1 sequence (P06280 32-429): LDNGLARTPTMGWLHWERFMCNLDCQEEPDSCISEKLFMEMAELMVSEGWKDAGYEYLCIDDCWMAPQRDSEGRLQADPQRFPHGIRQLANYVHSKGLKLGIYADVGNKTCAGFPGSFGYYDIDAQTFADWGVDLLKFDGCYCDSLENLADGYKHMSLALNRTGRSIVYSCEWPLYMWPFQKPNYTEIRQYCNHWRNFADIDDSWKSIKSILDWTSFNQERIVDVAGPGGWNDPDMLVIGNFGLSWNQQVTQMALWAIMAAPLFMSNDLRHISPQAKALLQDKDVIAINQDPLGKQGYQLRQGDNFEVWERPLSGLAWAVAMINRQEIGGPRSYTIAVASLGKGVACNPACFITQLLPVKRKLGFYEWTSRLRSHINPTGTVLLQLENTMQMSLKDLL
Experimental: GLA variants were challenged at various temperatures in the presence and absence of 1 μM 1-deoxygalactonojirimycin (Migalastat) to assess their overall stability. Supernatants from mammalian cell cultures were normalized to approximately equal activities by dilution with supernatant from a non GLA expressing culture. Diluted supernatants were added to the wells of a 96-well PCR plate (Biorad, HSP-9601). The plates were sealed and incubated at 30-54° C. for 1 h using the gradient program of a thermocycler. For the assay, 20 μL, of challenged supernatant was mixed with 30 μL, of 1 M citrate buffer pH 4.3 and 50 μL, of 4 mM MUGal in McIlvaine buffer pH 4.8. The reactions were mixed briefly and incubated at 37° C. for 90 minutes, prior to quenching with 100 μL, of 1 M sodium carbonate. Hydrolysis was analyzed using a SpectraMax® M2 microplate reader monitoring fluorescence (Ex. 355 nm, Em. 448 nm).

[2] = Optimization of signal peptide for secreted expression of GLA by S. cerevisiae
Source text: Two strategies for secreted GLA expression were utilized, using the yeast MFa signal peptide (MF-SP) or a longer leader sequence of 83 amino acids (MF-leader) to drive secretion of a yeast codon-optimized mature human GLA. Clones were expressed from a pYT-72 vector in S. cerevisiae strain INVSc1. Both approaches provided supernatants with measurable activity on the fluorogenic substrate 4-methylumbelliferyl α-D-galactopyranoside (4-MuGal). However, the construct with the yeast MFa signal peptide provided 3-fold higher activities and was used as the starting sequence for directed evolution.
S. cerevisiae transformed with Mfleader-GLA (SEQ ID NO:7), SP-GLA (SEQ ID NO:36) or a vector control were grown in HTP as described in Example 2. Cultures were grown for 48-120 h prior to harvest of the supernatant and analysis (n=6) as described in Example 2. FIG. 1 provides a graph showing the relative activity of different GLA constructs in S. cerevisiae after 2-5 days of culturing.

[3] = Thermostability of GLA variants expressed in HEK293T cells; conditions: HEK293T supernatants; 30-54° C. for 1 h; residual MUGal activity

Question: What does the source list for `OC[C@H]1NC[C@H](O)[C@@H](O)[C@H]1O` [Migalastat, 1-deoxygalactonojirimycin]?
Answer: reduction of GLA activity in the Migalastat treated sample ([1]; 0.2 μM final concentration in the assay): ~60%; increase of Tm of GLA by addition of Migalastat ([1]; 1 μM Migalastat during temperature challenge): 5.5 °C

B1: SP-GLA: 19 amino acid S. cerevisae MFalpha signal peptide fused to the mature form of yeast-optimized GLA (protein)
chain: MRFPSIFTAVLFAASSALALDNGLARTPTMGWLHWERFMCNLDCQEEPDSCISEKLFMEMAELMVSEGWKDAGYEYLCIDDCWMAPQRDSEGRLQADPQRFPHGIRQLANYVHSKGLKLGIYADVGNKTCAGFPGSFGYYDIDAQTFADWGVDLLKFDGCYCDSLENLADGYKHMSLALNRTGRSIVYSCEWPLYMWPFQKPNYTEIRQYCNHWRNFADIDDSWKSIKSILDWTSFNQERIVDVAGPGGWNDPDMLVIGNFGLSWNQQVTQMALWAIMAAPLFMSNDLRHISPQAKALLQDKDVIAINQDPLGKQGYQLRQGDNFEVWERPLSGLAWAVAMINRQEIGGPRSYTIAVASLGKGVACNPACFITQLLPVKRKLGFYEWTSRLRSHINPTGTVLLQLENTMQMSLKDLL
modifications: Synthetic Polynucleotide sequence of SP-GLA (yCDS)
notes: 19 amino acid S. cerevisae MFalpha signal peptide fused to the mature form of yeast-optimized GLA
Question: Which “level of active enzyme produced in S. cerevisiae” value ([2]; 2-5 days of culturing, saturated after three days of growth) does the source give for B1 here?
Answer: high level of active enzyme

Question: What about the “supernatant activity on 4-MuGal, fold higher than MF-leader construct” value ([2]; S. cerevisiae INVSc1 supernatant, versus MF-leader construct) of the same molecule?
Answer: 3 fold

B2: Variant 73: GLA variant; K206A relative to SEQ ID NO: 5 (protein)
chain: T1 sequence (P06280 32-429) with K206A
modifications: Synthetic Polypeptide sequence of Variant No. 73
Question: With B2 as the molecule, how does the “increase of Tm of the enzyme” value [3] read?
Answer: 2 °C
